Data reported in patent publication US20040037843A1 (published 2004).
Where two headings read alike, the source gives them in different places. One block for each binder: values may come before it.

Tests used:
[1] = target: HLA-A*0203 (human); test: competition with 125I probe peptide on purified HLA, gel filtration
[2] = target: HLA-A*0202 (human); test: competition with 125I-labelled standard peptide for purified HLA
[3] = target: HLA-A*0201 (human)
[4] = target: HLA-A*0206 (human)
[5] = target: HLA-A*0202 (human)
[6] = target: HLA-A*0203 (human)
[7] = target: HLA-A*0201 (human); test: competition with 125I-labeled probe peptide for purified HLA, gel filtration
[8] = target: HLA-A*6802 (human); test: as above
[9] = target: HLA-A*0206 (human); test: as above
[10] = target: HLA-A*0203 (human); test: as above
[11] = target: HLA-A*0202 (human); test: inhibition of 125I probe peptide binding to purified HLA, gel filtration
[12] = target: HLA-A*0201 (human); remark: listed apart in the source
[13] = target: HLA-A*6802 (human); test: inhibition of 125I probe peptide binding to purified HLA
[14] = target: HLA-A*0203 (human); test: as above
[15] = target: HLA-A*0206 (human); test: as above
[16] = target: HLA-A*0201 (human); test: as above

Binder: TVSGLQMAV [Peptide 60.0213 TVSGLQMAV (PAP.292.V9)]
IC50 [1]: 122 nM

Binder: ALVLAGGFFL [PSM.25]
IC50 [3]: > 200 nM

Binder: LMYSLVHNL [PSM.469]
IC50 [3]: ≤ 200 nM

Binder: LLHETDSAV [PSM.4]
IC50 [3]: > 200 nM

Binder: GLLGSTEWA [PSM.427]
IC50 [3]: > 200 nM

Binder: MLLRLSEPAEL [PSA.118 (11-mer MLLRLSEPAEL)]
IC50 [3]: ≤ 200 nM

Binder: LLLARAASLSL [PAP.6]
IC50 [3]: ≤ 200 nM

Binder: KLGSGNDFEV [PSM.514]
IC50 [3]: > 200 nM

Binder: TLMSAMTNL [PAP.112]
IC50 [3]: ≤ 200 nM

Binder: MMNDQLMFL [PSM.663]
IC50 [3]: ≤ 200 nM

Continued, values first:

IC50 [2]: 3 nM
Binder: FLTLSVTWIGV [peptide 1419.27, PSA.3.V11]

IC50 [4]: 5.2 nM | IC50 [5]: 6.3 nM | IC50 [6]: 2.8 nM
Binder: SLQCVSLHLV [peptide 1418.52 (HuK2.170.V10)]

IC50 [7]: 238 nM | IC50 [8]: 258 nM | IC50 [9]: 82 nM | IC50 [10]: 44 nM
Binder: ATFDIESKV [Peptide 1418.30]

IC50 [11]: 3 nM
Binder: FLTLSVTWIGV [Peptide 63.0186 (PSA.3.V11)]

IC50 [4]: 206 nM | IC50 [6]: 40 nM
Binder: ITLSVGCTGAV [peptide 1418.59 (HuK2.8.T2)]

IC50 [12]: 56 nM
Binder: KVTEFMLCAGV [peptide 1418.71, HuK2.191.V11]

IC50 [13]: 364 nM | IC50 [14]: 2.8 nM
Binder: FLLFFWLDRSV [Peptide 63.0138 FLLFFWLDRSV (PAP.20)]

IC50 [15]: 80 nM | IC50 [16]: 8.1 nM | IC50 [14]: 5.3 nM
Binder: LLLARAASLSL [Peptide 63.0136 LLLARAASLSL (PAP.6)]
